Positions count from the first letter of the chain named. Numbers in names are those of the source.

Here are results for two proteins from article PMC6479361, “Characterization of a New DyP-Peroxidase from the Alkaliphilic Cellulomonad, Cellulomonas bogoriensis” (Molecules, 2019).

Substrate in this data set: Nc1c(S(=O)(=O)O)cc(Nc2cccc(S(=O)(=O)CCOS(=O)(=O)O)c2)c2c1C(=O)c1ccccc1C2=O
Kind of data set: purified protein. The settings on record: 100 µM H2O2, 100 mM citrate pH 5, 50 nM enzyme, His-SUMO fusion. Type of data set: biochemical, Actinotalea bogoriensis.

B1: CboDyP (Actinotalea bogoriensis 69B4 = DSM 16987) (protein)
chain: VGAGAGARWGSRAPEAPQPARAAGPGDVVVPCHGEHQAGIVTPPPSFIALVALDLASTSDRASVERLLRVWTVDIERLTTGRPGLADSEPELALVPAALTVTVGFGPGLLTAAGLRHRAPAWLHPLPPFGIDRLDPAWCDGDVVLQVCADDRTTLAHAVRVLTKEAQGLASVRWVQRGFRRSPGISEPDGTSMRNLMGQVEGTANLDPRTDPDLLWHRDGEPGWLTGGTSMVVRRIAMNLDTWDELSRGAREATIGRTLRTGAPLTGRAEHDEPDLEALDDHGRPVIDLEAHIRRARPTQREETFLRRAYNYDEAPPPGRASDSGLLFVTYQRDVDAQFTPVQRRLDAADLLNEWTFPVGSAVFAVPGGWSAGEYVGQRLLEG
notes: codon-optimized synthetic gene, recombinant in E. coli NEB 10-beta; N-terminal His-SUMO fusion kept for kinetics, SUMO cleaved for crystals; Tat signal predicted, first 22 residues not visible in crystal; heme-containing; motif GXXEG
B1: the Km – broadly, the concentration of substrate that gives half-maximal velocity – came to 17 µM; the kcat – broadly, the number of substrate molecules converted per active site and unit of time at saturation – turned out to be 0.22 s⁻¹.

B2: CboDyP (Actinotalea bogoriensis 69B4 = DSM 16987; E205D) (protein)
chain: B1 chain with E201D
notes: as for B1
As to B2, the Km turned out to be 36 µM and the kcat was 2.88 s⁻¹.
